System: PLO-induced epilepsy in ICR mice
Test: Pilocarpine (PLO) induced convulsive epilepsy in mice
Assay type: in vivo, mouse
Parameters: mortality rate: unit not given here
Details: for Cases of deaths / Grade IV seizure rate / mortality rate / Cases of Grade IV: PLO 225 mg/kg i.p., 10 mice; for Cases of Grade IV: 30 min observation; for Grade II seizure incubation period / Grade III seizure incubation period / Grade IV seizure incubation period: mean±SEM; for Grade IV seizure incubation period: no Grade IV recorded as maximum 1800 s
Description: • Animals: male ICR mice; • Drugs: Pilocarpine HCl (PLO, pilocarpine, pilocarpine hydrochloride), Diazepam (diazepam tablets), protein BD-11.
Experiment grouping: • Model group: • Diazepam 2 mg/kg group; • Protein BD-11, 50 mg/kg group, 200 mg/kg group.
The drug was administered once in the afternoon the day before modeling, PLO-225 mg/kg (modeling agent) was injected intraperitoneally 1 hour after the test drug was administered intragastrically on the day of modeling. And positive drug can be administered once 20 minutes before modeling. Observe for 30 minutes after PLO injection.
Observation indicators: ①Seizure situation: the time of seizures from Grade II to Grade IV; (2)the time to death.
Seizure grade: Refer to Racine grading standard: Grade 0: No response; Grade I: manifested as twitching of facial muscles or the corners of the mouth; Grade II: can nod; Grade III: twitching of one limb; Grade IV: rigidity or body twitching; Grade V: generalized epilepsy (generalized tonic seizures).
Count the number of Grade IV seizures and deaths in each group of mice in the experiment; Grade II, III and IV incubation period. […] Chi-square test was used for statistics of the number of cases. The mean value and standard error of the incubation period were calculated, and TTEST was used to compare the model group with other groups. P<0.05 was considered as a significant difference.

B1: BD-11: recombinant keratin, amino acid sequence SEQ ID NO:1, expressed in E. coli, band around 59 kD; Example 4 batch tested (protein, listed as Bos taurus)
chain: MSRQSTITFQTSSRRGFSTASATTPATSRSRFSSASVTHSPAGSGGLGRISGFGSRSLYNLGGTKRVSISGCGSNFRSGFGGRASSGFGVSGGFGYGGGIGGGHGGCGFSVCPPGGIQEVTVNQSLLTPLNLQIDPNIQRVRKEEREQIKTLNNKFASFIDKVRFLEQQNKVLETKWSLLQEQGTRTVRQSLEPFFEAYITDLRRQLDSITTERGRLDAELRTMQDVVEDFKVRYEDEINKRTAAENEFVALKKDVDAAYLNKVDLEAKANSLTDEINFLQMLFEAELCQMQTRVSDTSVVLSMDNNRSLDLDSIIAEVKAQYEEIANRSRAEAESWYQTKYEELQVTAGQHGDDLRNTKQEISETNRMIQRLRAEIDNVKKQCASLQTAIADAEQRGELALKDARAKLVDLEEALQKSKQDMARLLREYQELMNIKLALDVEIATYRKLLEGEECRLSGEGVSPVNISVVTSTVSSGYGGGSSIGSGSLGLSGGSGCSFMTSGGHSLGGSSFSNSSSRGLGGSGSSFKFVSTTSSSRKSYKH
Cases of deaths (BD-11 50 mg/kg intragastric): 0
Grade IV seizure rate (BD-11 50 mg/kg intragastric): 50%
mortality rate (BD-11 50 mg/kg intragastric): 0
Cases of Grade IV (BD-11 50 mg/kg intragastric): 5
Grade II seizure incubation period (BD-11 50 mg/kg, PLO model): 95 ± 6 s
Grade III seizure incubation period (BD-11 50 mg/kg, PLO model): 164 ± 10 s
Grade IV seizure incubation period (BD-11 50 mg/kg, PLO model): 1357 ± 154 s
Incubation period of epilepsy Grade III, comparison with model group (BD-11 200 mg/kg dose group, PLO model): statistically different from the model group
Cases of deaths (BD-11 200 mg/kg intragastric): 0
Grade IV seizure rate (BD-11 200 mg/kg intragastric): 60%
mortality rate (BD-11 200 mg/kg intragastric): 0
Cases of Grade IV (BD-11 200 mg/kg intragastric): 6
Grade II seizure incubation period (BD-11 200 mg/kg, PLO model): 96 ± 6 s
Grade III seizure incubation period (BD-11 200 mg/kg, PLO model): 164 ± 7 s
Grade IV seizure incubation period (BD-11 200 mg/kg, PLO model): 1114 ± 191 s
Effect on incubation period of Grade III epilepsy in mice (summary) (dose not given): significantly prolong the incubation period of Grade III epilepsy
